Target: HA-14-3-3β (UniProt P31946)
Assay: GFP co-immunoprecipitation, HA blot, densitometry

Row | binding against the reference (reference: wild type (unstimulated and PMA-treated cells), sites S1093,S1163) | binding against the reference (reference: S1093A single mutant, sites S1163) | binding against the reference (reference: S1163A single mutant, sites S1093) | Substance
1 | weaker |  |  | mouse CdGAP (mCdGAP, GFP-CdGAP) (from UniProt A6X8Z5) S1093A/S1163A
2 |  | weaker | weaker | mouse CdGAP (mCdGAP, GFP-CdGAP) (from UniProt A6X8Z5) S1093A/S1163A double mutant
